# Data published in paper PMC4506781.
# Tests used:
# Assay in all cases: cross-linking
# [1] = target: CA P207C/T216C in isolated HIV-1 cores (R9.P207C/T216C) (HIV-1)
# [2] = target: HIV-1 CA P207C/T216C, assembled into tubes (HIV-1)
# [3] = target: HIV-1 CA A14C/E45C, assembled into tubes (HIV-1)
# [4] = target: CA A14C/E45C in isolated HIV-1 cores (R9.A14C/E45C) (HIV-1)
substance,measurement,setting,value
CA P207C/T216C in isolated HIV-1 cores (R9.P207C/T216C) (natural protein),stoichiometry N,[1],3
"HIV-1 CA P207C/T216C, assembled into tubes (natural protein)",stoichiometry N,[2],3
"HIV-1 CA A14C/E45C, assembled into tubes (natural protein)",stoichiometry N,[3],6
CA A14C/E45C in isolated HIV-1 cores (R9.A14C/E45C) (natural protein),stoichiometry N,[4],6
